Test results as given in PMC11405395 (The EMBO Journal, 2024).

Molecular target: T1, Homo sapiens CMG helicase (CDC45-MCM2-7-GINS) (human, UniProt P49736 1-904; P25205 1-808; P33991 1-863; P33992 1-734; Q14566 1-821; P33993 …)
T1 construct: MCM2, human, subunit of CMG; MCM3, human, subunit of CMG; MCM4, human, subunit of CMG; MCM5, human, subunit of CMG; MCM6, human, subunit of CMG; MCM7, human, subunit of CMG; CDC45, human, subunit of CMG; SLD5 (GINS4), human, GINS subunit of CMG (PrA-3TEV-HsSld5; eluted from IgG Sepharose with TEV protease); PSF1 (GINS1), human, GINS subunit of CMG; PSF2 (GINS2), human, GINS subunit of CMG; PSF3 …
Test: co-IP; purified proteins mixed: 10 nM RTEL1-FLAG with 15 nM hsCMG, 10 min on ice; anti-FLAG M2 magnetic beads; 25 mM Hepes-KOH pH 7.6, 100 mM KOAc, 0.02% NP-40-S, 0.1 mg/mL BSA, 1 mM DTT, 10 mM Mg(OAc)2; immunoblotting
Conditions: both partners purified

B1: RTEL1ΔL834-G846 (enzyme, human, UniProt Q9NZ71-1 1-1219, looked up)
chain: MPKIVLNGVTVDFPFQPYKCQQEYMTKVLECLQQKVNGILESPTGTGKTLCLLCTTLAWREHLRDGISARKIAERAQGELFPDRALSSWGNAAAAAGDPIACYTDIPKIIYASRTHSQLTQVINELRNTSYRPKVCVLGSREQLCIHPEVKKQESNHLQIHLCRKKVASRSCHFYNNVEEKSLEQELASPILDIEDLVKSGSKHRVCPYYLSRNLKQQADIIFMPYNYLLDAKSRRAHNIDLKGTVVIFDEAHNVEKMCEESASFDLTPHDLASGLDVIDQVLEEQTKAAQQGEPHPEFSADSPSPGLNMELEDIAKLKMILLRLEGAIDAVELPGDDSGVTKPGSYIFELFAEAQITFQTKGCILDSLDQIIQHLAGRAGVFTNTAGLQKLADIIQIVFSVDPSEGSPGSPAGLGALQSYKVHIHPDAGHRRTAQRSDAWSTTAARKRGKVLSYWCFSPGHSMHELVRQGVRSLILTSGTLAPVSSFALEMQIPFPVCLENPHIIDKHQIWVGVVPRGPDGAQLSSAFDRRFSEECLSSLGKALGNIARVVPYGLLIFFPSYPVMEKSLEFWRARDLARKMEALKPLFVEPRSKGSFSETISAYYARVAAPGSTGATFLAVCRGKASEGLDFSDTNGRGVIVTGLPYPPRMDPRVVLKMQFLDEMKGQGGAGGQFLSGQEWYRQQASRAVNQAIGRVIRHRQDYGAVFLCDHRFAFADARAQLPSWVRPHVRVYDNFGHVIRDVAQFFRVAERTMPAPAPRATAPSVRGEDAVSEAKSPGPFFSTRKAKSLDLHVPSLKQRSSGSPAAGDPESSLCVEYEQEPVPARQRPRGSPGEEQAHSCSTLSLLSEKRPAEEPRGGRKKIRLVSHPEEPVAGAQTDRAKLFMVAVKQELSQANFATFTQALQDYKGSDDFAALAACLGPLFAEDPKKHNLLQGFYQFVRPHHKQQFEEVCIQLTGRGCGYRPEHSIPRRQRAQPVLDPTGRTAPDPKLTVSTAAAQQLDPQEHLNQGRPHLSPRPPPTGDPGSQPQWGSGVPRAGKQGQHAVSAYLADARRALGSAGCSQLLAALTAYKQDDDLDKVLAVLAALTTAKPEDFPLLHRFSMFVRPHHKQRFSQTCTDLTGRPYPGMEPPGPQEERLAVPPVLTHRAPQPGPSRSEKTGKTQSKISSFLRQRPAGTVGAGGEDAGPSQSSGPPHGPAASEWGL
notes: Plasmid pSP48; also called hsRTEL1ΔL834-G846; source: S. cerevisiae strain ySP072, purified (anti-FLAG M2 resin, HiLoad Superdex 200); not shown: 2XFLAG, C-terminal, kept
  binding result: binds
